Reference: paper PMC8630017, “Structural insights into proteolytic activation of the human Dispatched1 transporter for Hedgehog morphogen release” (Nature Communications, 2021)
Values belong to the molecule of their own block, whether it stands above or below them.

Tests used:
[1] = molecular target: wild-type human Dispatched1 (hDisp1), N-terminal Flag tag and C-terminal Twin-Strep tag (human) (UniProt Q96F81)
[2] = molecular target: the molecule itself; experiment: SEC; purified hDisp1^NNN on Superose 6 10/300 GL in 25 mM Tris pH 8.0, 150 mM NaCl, 0.02% GDN

Molecule: NanoLuc-tagged human Shh, mutant V51E (from UniProt Q15465 24-462) (ligand)
Scube2-dependent Shh-NL release from HEK293T cells after 6 h, against WT Shh-NL (fold reduction) [1]: > 2

Molecule: NanoLuc-tagged human Shh, mutant N81A (from UniProt Q15465 24-462) (ligand)
Scube2-dependent Shh-NL release from HEK293T cells after 6 h, against WT Shh-NL (surface localisation of this mutant reduced just below 50%) (fold reduction) [1]: > 2

Molecule: NanoLuc-tagged human Shh, mutant E71A (from UniProt Q15465 24-462) (ligand)
Scube2-dependent Shh-NL release from HEK293T cells after 6 h, against WT Shh-NL (fold reduction) [1]: > 2

Molecule: NanoLuc-tagged human Shh, mutant Y80A (from UniProt Q15465 24-462) (ligand)
Scube2-dependent Shh-NL release from HEK293T cells after 6 h, against WT Shh-NL (fold reduction) [1]: > 2

B1: hDisp1^NNN (D572N, D573N, D1051N), N-terminal Flag tag and C-terminal His10 tag, purified (natural protein, human, UniProt Q96F81 1-1524, looked up)
chain: MAMSNGNNDFVVLSNSSIATSAANPSPLTPCDGDHAAQQLTPKEATRTKVSPNGCLQLNGTVKSSFLPLDNQRMPQMLPQCCHPCPYHHPLTSHSSHQECHPEAGPAAPSALASCCMQPHSEYSASLCPNHSPVYQTTCCLQPSPSFCLHHPWPDHFQHQPVQQHIANIRPSRPFKLPKSYAALIADWPVVVLGMCTMFIVVCALVGVLVPELPDFSDPLLGFEPRGTAIGQRLVTWNNMVKNTGYKATLANYPFKYADEQAKSHRDDRWSDDHYEREKREVDWNFHKDSFFCDVPSDRYSRVVFTSSGGETLWNLPAIKSMCNVDNSRIRSHPQFGDLCQRTTAASCCPSWTLGNYIAILNNRSSCQKIVERDVSHTLKLLRTCAKHYQNGTLGPDCWDMAARRKDQLKCTNVPRKCTKYNAVYQILHYLVDKDFMTPKTADYATPALKYSMLFSPTEKGESMMNIYLDNFENWNSSDGVTTITGIEFGIKHSLFQDYLLMDTVYPAIAIVIVLLVMCVYTKSMFITLMTMFAIISSLIVSYFLYRVVFHFEFFPFMNLTALIILVGIGANNAFVLCDVWNYTKFDKPHAETSETVSITLQHAALSMFVTSFTTAAAFYANYVSNITAIRCFGVYAGTAILVNYVLMVTWLPAVVVLHERYLLNIFTCFKKPQQQIYDNKSCWTVACQKCHKVLFAISEASRIFFEKVLPCIVIKFRYLWLFWFLALTVGGAYIVCINPKMKLPSLELSEFQVFRSSHPFERYDAEYKKLFMFERVHHGEELHMPITVIWGVSPEDNGNPLNPKSKGKLTLDSSFNIASPASQAWILHFCQKLRNQTFFYQTDEQDFTSCFIETFKQWMENQDCDEPALYPCCSHWSFPYKQEIFELCIKRAIMELERSTGYHLDSKTPGPRFDINDTIRAVVLEFQSTYLFTLAYEKMHQFYKEVDSWISSELSSAPEGLSNGWFVSNLEFYDLQDSLSDGTLIAMGLSVAVAFSVMLLTTWNIIISLYAIISIAGTIFVTVGSLVLLGWELNVLESVTISVAVGLSVNFAVHYGVAYRLAPDPDREGKVIFSLSRVGSAMAMAALTTFVAGAMMMPSTVLAYTQLGTFMMLIMCISWAFATFFFQCMCRCLGPQGTCGQIPLPKKLQCSAFSHALSTSPSDKGQSKTHTINAYHLDPRGPKSELEHEFYELEPLASHSCTAPEKTTYEETHICSEFFNSQAKNLGMPVHAAYNSELSKSTESDAGSALLQPPLEQHTVCHFFSLNQRCSCPDAYKHLNYGPHSCQQMGDCLCHQCSPTTSSFVQIQNGVAPLKATHQAVEGFVHPITHIHHCPCLQGRVKPAGMQNSLPRNFFLHPVQHIQAQEKIGKTNVHSLQRSIEEHLPKMAEPSSFVCRSTGSLLKTCCDPENKQRELCKNRDVSNLESSGGTENKAGGKVELSLSQTDASVNSEHFNQNEPKVLFNHLMGEAGCRSCPNNSQSCGRIVRVKCNSVDCQMPNMEANVPAVLTHSELSGESLLIKTL
notes: human Dispatched1, M1 to L1524, triple mutant in TM4 and TM10; The purified protein is a mix of uncleaved (175 kDa) and Furin-cleaved species (C145 with the His tag; N35 and N30 with the Flag tag); source: HEK293F, transiently transfected, purified (anti-Flag resin, Ni-NTA, SEC on Superose 6) in GDN; not shown: Flag, N-terminal, kept; His10, C-terminal, kept
binding result [2]: binds

Now from value to molecule:

Scube2-dependent Shh-NL release from HEK293T cells after 6 h, against WT Shh-NL (fold reduction) [1]: > 2
Molecule: NanoLuc-tagged human Shh, mutant L56A (from UniProt Q15465 24-462) (ligand)

Scube2-dependent Shh-NL release from HEK293T cells after 6 h, against WT Shh-NL (fold reduction) [1]: > 2
Molecule: NanoLuc-tagged human Shh, mutant K74A (from UniProt Q15465 24-462) (ligand)

Scube2-dependent Shh-NL release from HEK293T cells after 6 h, against WT Shh-NL (fold reduction) [1]: > 2
Molecule: NanoLuc-tagged human Shh, mutant N50A (from UniProt Q15465 24-462) (ligand)

Scube2-dependent Shh-NL release from HEK293T cells after 6 h, against WT Shh-NL (fold reduction) [1]: > 2
Molecule: NanoLuc-tagged human Shh, mutant L56K (from UniProt Q15465 24-462) (ligand)
